# Entries after “also recorded” stand apart in the source; their conditions may differ. No end group written: not given here.
# T1: PR-3 (Homo sapiens, UniProt P24158)
# T1 sequence (P24158 28-248): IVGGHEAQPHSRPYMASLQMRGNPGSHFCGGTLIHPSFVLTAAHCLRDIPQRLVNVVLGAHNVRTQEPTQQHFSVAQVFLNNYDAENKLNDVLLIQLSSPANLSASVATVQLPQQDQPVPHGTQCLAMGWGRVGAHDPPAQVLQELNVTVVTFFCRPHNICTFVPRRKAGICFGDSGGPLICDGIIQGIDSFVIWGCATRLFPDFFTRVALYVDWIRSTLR
# T2: PR-3 (Homo sapiens, UniProt P24158)
# T2 construct: tissue Athens Research and Technology
# T2 sequence (P24158 28-248 limits assumed): T1 sequence (P24158 28-248)
# T3: ^125I-IL-32 (Homo sapiens, UniProt P24001)
# T3 construct: made in house; host or cells: E. coli (IL-32α)
# T3 sequence (P24001 1-131 isoform P24001-4): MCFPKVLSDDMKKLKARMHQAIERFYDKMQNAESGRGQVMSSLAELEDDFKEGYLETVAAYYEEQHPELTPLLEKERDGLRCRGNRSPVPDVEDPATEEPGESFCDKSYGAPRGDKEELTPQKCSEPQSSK
# T3 sequence (P24158 28-248 partner limits assumed): T1 sequence (P24158 28-248)
# B1: IL-32: recombinant human IL-32α produced in E. coli, about 20 kDa (protein)
# chain: T3 sequence (P24001 1-131 isoform P24001-4)
# B2: PR-3: granule serine protease, source (urinary or commercial) not stated at these places (protein)
# chain: AEIVGGHEAQPHSRPYMASLQMRGNPGSHFCGGTLIHPSFVLTAAHCLRDIPQRLVNVVLGAHNVRTQEPTQQHFSVAQVFLNNYDAENKLNDVLLIQLSSPANLSASVATVQLPQQDQPVPHGTQCLAMGWGRVGAHDPPAQVLQELNVTVVTFFCRPHNICTFVPRRKAGICFGDSGGPLICDGIIQGIDSFVIWGCATRLFPDFFTRVALYVDWIRSTLRRVEAKGRP
# B3: urinary PR-3: human Proteinase-3 (28-32 kDa) affinity purified from human urine on an IL-32 column, elution fraction 3 (protein)
# chain: T1 sequence (P24158 28-248)
# B4: commercial PR-3: commercially available human neutrophil derived PR-3 (Athens Research and Technology) (protein)
# chain: T1 sequence (P24158 28-248)
# B5: VAAYYEEQHPELTPLLEKERDGLRCRGNRSPVPDVEDPATEEPGESFCDKSYGAPR GDKEELTPQKCSEPQSSK (protein, listed as Homo sapiens)
# chain: VAAYYEEQHPELTPLLEKERDGLRCRGNRSPVPDVEDPATEEPGESFCDKSYGAPRGDKEELTPQKCSEPQSSK
# notes: C-terminal fragment of IL-32 generated by PR-3
# B6: MNEI: a 42 kDa serpin superfamily member (protein, UniProt P30740 1-379, looked up)
# Leukocyte elastase inhibitor: MEQLSSANTRFALDLFLALSENNPAGNIFISPFSISSAMAMVFLGTRGNTAAQLSKTFHFNTVEEVHSRFQSLNADINKRGASYILKLANRLYGEKTYNFLPEFLVSTQKTYGADLASVDFQHASEDARKTINQWVKGQTEGKIPELLASGMVDNMTKLVLVNAIYFKGNWKDKFMKEATTNAPFRLNKKDRKTVKMMYQKKKFAYGYIEDLKCRVLELPYQGEELSMVILLPDDIEDESTGLKKIEEQLTLEKLHEWTKPENLDFIEVNVSLPRFKLEESYTLNSDLARLGVQDLFNSSKADLSGMSGARDIFISKIVHKSFVEVNEEGTEAAAATAGIATFCMLMPEENFTADHPFLFFIRHNSSGSILFLGRFSSP
# Assays:
# [1] = biological target: T1, PR-3; conditions: cited from earlier work; for kI for PR-3: Kam, 1992
# [2] = tested on: IL-32 responsive cells; experiment: Biological activity of IL-32 and its proteolytic fragments (summary statement referring to Example 8); assay type: cell-based; conditions: for biological activity compared to the intact IL-32 protein: fragments generated by PR-3 cleavage
# From the text: The cleavage of IL-32 and the consequent enhancement of the biological activity were both blocked by the action of PMSF.
# For the purpose of the present description the expression “biological activity of IL-32” refers inter alia to at least one of the following biological properties:
# (i) induction of MIP-2, (ii) induction of TNF, and (iii) induction of IL-8.
# [3] = biological target: T2, PR-3; experiment: Inhibition of the proteolytic activity of PR-3 by PMSF (cleavage of 125I-IL-32); assay type: biochemical; conditions: PR-3 pre-incubated with PMSF 1 mM, 10 min at 37° C.; then 1 and 5 min with 125I-IL-32
# Method: Lanes 1-4 show ^125I-IL-32 following incubation with urinary PR-3 for 1 and 5 min., either not treated (Lanes 1 and 2) or pre-treated with PMSF (Lanes 3 and 4). Lanes 7-10 show ^125I-IL-32 following incubation with commercial PR-3 for 1 and 5 min., either not treated (Lanes 9 and 10) or pre-treated with PMSF (Lanes 7 and 8). Molecular weight markers (in kDa; lane 5) are indicated at the right side.
# The experiment presented in FIG. 6 was performed as described in examples 5 and 6, except that PR-3 was pre-incubated with PMSF (final concentration of 1 mM, 10 min at 37° C.) prior to the incubation with ^125I-IL-32.
# [4] = tested on: human peripheral blood mononuclear cells (PBMC); experiment: IL-8 secretion by human PBMC stimulated with IL-32 or PR-3-pretreated IL-32; assay type: cell-based; conditions: IL-32 20 or 200 ng/ml; PR-3 100 ng/ml, 5 min pretreatment
# Method: Human PBMC cells were seeded in 96 well plates and incubated with IL-32 (20 or 200 ng/ml), IL-32 pretreated with PR-3 (100 ng/ml) for 5 min. or with PR-3 alone as the a control. The content of IL-8 into the cell culture medium was measured.
# Similar enhancement of IL-32 activity by pre-treatment with PR-3 was shown in an experiment carried out with human peripheral blood mononuclear cells (PBMC). PBMC were prepared as previously described [Kim, 2005 #36] and seeded at a concentration of 5×10^5 cells per well in 96 well plates. The experimental setting of stimulation with IL-32 and IL-32 pre treated with PR-3 was identical to that described above for the mouse Raw cells. After stimulation of the human PBMC cells with either IL-32 or IL-32 pre treated with PR-3, the culture supernatants were collected to measure human IL-8 released by the cells.
# [5] = tested on: Raw 264.7 cells; experiment: MIP-2 secretion by mouse macrophage Raw 264.7 cells stimulated with IL-32 or PR-3-pretreated IL-32; assay type: cell-based; conditions: IL-32 20 or 200 ng/ml; PR-3 100 ng/ml, 5 min pretreatment; 16-20 h; polymyxin B 5 μg/ml
# Method: Mouse macrophage Raw 264.7 cell line were seeded in a 96 well plate and incubated with IL-32 (20 or 200 ng/ml), IL-32 pretreated with PR-3 (100 ng/ml) for 5 min. or with PR-3 alone as the a control, and MIP-2 secreted into the cell culture medium was measured. […] PR-3 alone had no effect on the cells.
# Mouse macrophage Raw 264.7 cell line (American Type Culture Collection, ATCC) was maintained in RP MI-1640 medium containing 10% FCS. Bioassays were performed in 96 well plates. Briefly, Raw cells (5×10^5/ml, 0.1 ml/per well) were seeded and cultured until cells adhered to the plate. The medium was removed and the cells were then stimulated with fresh medium (without FCS) containing different concentration of IL-32 or IL-32 pre-treated with PR-3 for 5 min at room temperature in the presence 5 μg/ml of the LPS blocker polymyxin B (Bedford Laboratories, Bedford, Ohio). The plates were incubated at 37° C. with 5% CO2 for 16-20 h and then the culture supernatants were collected to measure MIP-2 released by the cell culture.
# [6] = biological target: T3, ^125I-IL-32; experiment: Kinetics of degradation of 125I-IL-32 by urinary and commercial PR-3 (SDS-PAGE, autoradiography); assay type: biochemical
# Method: After 1 minute of incubation with PR-3 the 20 kDa IL-32 (Lane 1) was cleaved into two cleavage products of 16 and 13 kDa (Lane 2). After 5 min. (Lane 3) the band corresponding to the intact IL-32 disappeared and the cleavage products remained stable for at least 60 min. (lanes 3, 4, 6, and 7). The resulting ^125I-IL-32 fragments of apparent MW of 20 kDa, 16 kDa and 13 kDa are indicated on the left side of the FIG.
# The experiment was carried out essentially as indicated in FIG. 4 (Example 5) except, that incubation of PR-3 and IL32 was limited to up to 5 minutes and that both urinary and commercial PR-3 were used. Urinary (Lines 1-3) or commercial PR-3 (Lines 5-7) were incubated with ^125I-IL-32 for 0, 1 and 5 minutes.
# Affinity purified urinary PR-3 (elution 3 fraction from Example 1, FIG. 1, 50 μl) was added to ^125I-IL-32 (250,000 cpm in 10 μl of gelatin solution) and incubated at 37° C. for 0, 1, 5, 15, 30, and 60 min. (FIG. 4). Degradation was stopped by the addition of SDS-PAGE sample buffer and by boiling for 10 min. Samples containing ^125I-IL-32 and PR-3 incubated at different periods of time (0-60 min.) were resolved on 12% SDS-PAGE under reducing conditions. The gel was dried and autoradiographed. The results summarized on FIG. 4 show the reduction in the 20 kDa band representing intact IL-32 (FIG. 4, lane 1) and the increase in the levels of a 16 and 13 kDa IL-32 cleavage products after a 1-minute incubation with PR-3 (FIG. 4, lane 2).
# Urinary PR-3 or commercial PR-3 (Athens Research and Technology) were incubated with ^125I-IL-32 for 0, 1 and 5 min. Digestion was stopped by the addition of SDS-PAGE sample buffer and by boiling for 10 min. The samples were resolved on SDS-PAGE under reducing conditions. The gel was dried and autoradiographed. […] This difference is probably due to a different specific activity of urinary vs. commercial PR3.
molecule,measurement,setting,value
Nc1ccc2c(Cl)c(OCCBr)oc(=O)c2c1 [7-amino-4-chloro-3-(2-bromoethoxy) isocoumarin],kI for PR-3,[1],4700 M⁻¹ s⁻¹
"MCFPKVLSDDMKKLKARMHQAIERFYDKMQNAESGRGQVMSSLAELEDDFKEGYLET (listed as Homo sapiens) [13 kDa (SEQ ID NO: 1), supposed N-terminal fragment of IL-32 generated by PR-3]",biological activity compared to the intact IL-32 protein,[2],enhanced biological activity
"O=c1oc(Cl)c(Cl)c2ccccc12 [3,4-dichloroisocoumarin]",kI for PR-3,[1],2600 M⁻¹ s⁻¹
Cc1ccc(C(=O)Nc2ccc(S(=O)(=O)O)c3cc(S(=O)(=O)O)cc(S(=O)(=O)O)c23)cc1NC(=O)c1cccc(NC(=O)Nc2cccc(C(=O)Nc3cc(C(=O)Nc4ccc(S(=O)(=O)O)c5cc(S(=O)(=O)O)cc(S(=O)(=O)O)c45)ccc3C)c2)c1 [Suramin],Ki,"[1]; Cadene, 1997",500 nM
"Elafin: a human skin derived peptide that inhibits human leukocyte elastase (AQEPVKGPVSTKPGSCPIILIRCAMLNPPNRCLKDTDCPGIKKCCEGSCGMACFVPQ; ends and bridges not checked; cysteine pairing not given here; UniProt P19957 61-117, looked up)",IC50,"[1]; Wiedow, 1991, Zani, 2004",9.5 nM
same,potency compared with antileukoprotease and eglin C,[1]; inhibition of PR-3,more than 100 fold
"O=S(=O)(F)Cc1ccccc1 [PMSF, phenyl methyl sulfonyl fluoride]",enhancement of the biological activity of IL-32 following cleavage by PR-3,[2]; action of PMSF,blocked
same,cleavage of IL-32 by urinary and commercial PR-3,[3],completely abolished; also recorded: completely blocked
B1,IL-8 secreted into the cell culture medium,[4],induced the secretion of IL-8
same,MIP-2 secreted into the cell culture medium,[5],induced the secretion of MIP-2
B2,digestion of IL-32 after overnight incubation with PR-3,"[6]; overnight at 4° C., no product higher than the 10 kDa marker",complete digestion
same,IL-8 secreted into the cell culture medium,[4],did not induce IL-8
same,MIP-2 secreted into the cell culture medium,[5],no effect
B3,incubation time to complete disappearance of the 20 kDa intact IL-32 band,"[6]; 37° C., cleaved into 16 and 13 kDa fragments",5 min
B4,"potency of IL-32 cleavage, commercial vs urinary PR-3","[6]; incubation 0, 1 and 5 min",more potent than the urinary PR-3; also recorded: more efficient than the urine-derived PR-3
B5,biological activity compared to the intact IL-32 protein,[2],enhanced biological activity
B6,rate of PR-3 inhibition,"[1]; Cooley, 2001",> 10^7 M^−1·s^−1
